Test results: the nanobody polyreactivity screen of Harvey et al. (2022)

assay: yeast display, Sf9 membrane polyspecificity reagent, FACS + sequencing; frameworks hold sequencing errors
Method in brief: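 A nanobody's polyreactivity label depends on the gate it was sorted from. Yeast display cells were stained with 10% biotinylated, detergent-solubilized Sf9 membrane reagent for 1 hour at 4 °C, enriched on streptavidin microbeads and sorted by FACS. The low and high (top ~1%) gates were set on anti-HA fluorescence for expression and streptavidin fluorescence for reagent binding.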

Sequence | polyreactivity (PSR sort gate)
QVQLVESGGGLVQAGGSLRLSCAASGRTFGLYAMGWYRQAPGKERELVAAISSGVSTNYADSVKGRFTISRDNAKNTVYLQMNSLKPEDTAVYYCAAKNYYPRVNYWGQGTQVTVSS | high polyreactivity
QVQLVESGGGLVQAGGSLRLSCAASGRTFGLYAMGWYRQAPGKERELVATITTSDIITYYADSVKGRFTISRDNAKNSVYLQMNSLKPEDTAVYYCASGGYDDFSSRPANDYWGQGTQVTVSS | low polyreactivity
QVQLVESGGGLVQAGGSLRLSCAASGRTFGNYVMGWYRQAPGKERELVAAIRSGTNTYYADSVKGRFTISLDNAKNTVYLQMNSLKPEVTAVYYCNKYVRTTDYDYWGQGIQVTVSS | high polyreactivity
QVQLVESGGGLVQAGGSLRLSCAASGRTFGPNAMGWYRQAPGKERELVAGISWRGTSTYYADSVKGRFTISRDNAKNTVYLQMNSLKPEDTAVYYCAKSVYGYGTLYDHWGQGTQVTVSS | high polyreactivity
QVQLVESGGGLVQAGGSLRLSCAASGRTFGPNVMGWYIQAPRKERELVAAITSGGTTYYADSVKGRFTISRDNANNTVYLLMNSLKPEDTAVYYCAKVLRGGRYDYWGQGTQVTVSS | low polyreactivity
QVQLVESGGGLVQAGGSLRLSCAASGRTFGPYAMGWYRQAPGKDSDLVATISWNGGSTYYADSVKGRFTISRDYAKNSVYLQMNSLKPEDTAVYYCAARHWSQSWKYGYWGQGTQVTVSS | high polyreactivity
QVQLVESGGGLVQAGGSLRLSCAASGRTFGPYAMGWYRQAPGKERELVAAISRSGGRTYYADSVKGRFTISRDNAKNTVYLQMNSLKPEDTAVYYCAARYYSEPNAYYYWGQGTQVTVSS | high polyreactivity
QVQLVESGGGLVQAGGSLRLSCAASGRTFGQYAMGWSRQAPGKERELVAAISARGASTYYADSVKGRFTISRDTAKNTVYLQMNSLKPEDTAVYYCNKYGRTSSTPLFYYWGQGTQVTVSS | high polyreactivity
QVQLVESGGGLVQAGGSLRLSCAASGRTFGQYAMGWYRQAPGKERQLVAAISTRGGSTYYADSVKGRFTISRDNAKNTVYLQMNSLKPEDTAVYYCAARPGWFAGYEYWGQGTQVTVSS | low polyreactivity
QVQLVESGGGLVQAGGSLRLSCAASGRTFGRKAMGWYRQAPGKERELVAAIARSGASTYYADSVKGRFTISRDNAKNTVYLQMNSLNPEDTAVYYCAKDVWGSRYAYDYWGQGTQVTVSS | low polyreactivity
QVQLVESGGGLVQAGGSLRLSCAASGRTFGRNAMGWYRQAPGKEREFVAAISRRGDTTYYADSVKGRFTISRDNAKNTVYLQMNSLKPEDTAVYYCNADVIKDRFSWYYYWGQGTQVTVSS | low polyreactivity
QVQLVESGGGLVQAGGSLRLSCAASGRTFGRNAMGWYRQATGKERELVAAISRSGASTYYADSVKGRFTISRDNAKNTVYLQMNSLKPEDTAVYYCAKDVWGSRYAYDYWGQGTQVTVSS | low polyreactivity
QVQLVESGGGLVQAGGSLRLSCAASGRTFGRYAMGWYRQAPGKEREFVAAIRSHGVSTYYADSVKGRFTISRDNAKNTVYLQMNSLKPEDTAVYYCAKPSTSYYQRGDYWGQGTQVTVSS | high polyreactivity
QVQLVESGGGLVQAGGSLRLSCAASGRTFGRYAMGWYRQAPGKERELVAAISWSGGSTNYADSVKGRFTISRDNAKNTVYLQMISLKPEDTAVYYCAAVTTDGVYAFDYWGQGTQVTVSS | low polyreactivity
QVQLVESGGGLVQAGGSLRLSCAASGRTFGRYAMGWYRQAPGKERELVAAISWTGGRTYYADSVKGRFTISRDNAKNTVYLQMNRLKPEDTAVYYCAALYDRNPAASRGYDSWGQGTQVTVSS | high polyreactivity
QVQLVESGGGLVQAGGSLRLSCAASGRTFGRYAMGWYRQAPGKERELVATITSGGSTNYADSVKGRFTISRDNAKNTVYLQMNSLKPEDTAVYYCAAEFSPSRWAYSEGALRYNYWGQGTQVNVSS | low polyreactivity
